According to article PMC12416549 (2024):
Where a chain is given by its changes, count along the chain named. Names may count otherwise.

T1: TNFR1 (Homo sapiens, UniProt P19438)
T1 chain: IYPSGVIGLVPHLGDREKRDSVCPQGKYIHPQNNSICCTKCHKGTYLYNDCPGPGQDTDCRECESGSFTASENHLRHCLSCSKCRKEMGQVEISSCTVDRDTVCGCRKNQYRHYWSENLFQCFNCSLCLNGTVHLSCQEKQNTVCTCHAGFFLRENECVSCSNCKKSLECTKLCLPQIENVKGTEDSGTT

B1: A91N (designed binder)
chain: MTLQELLREEALRRAEAEAFRYALELLAEKFPEQKEYLLDLAEEIESQIRSLSGVDVEDVRKFLDKEWAWVKELLAEHPAELAEVEAARANRLAELRAEVEAKVAA
B2: A11C (designed binder)
chain: B1 chain with A11C, N91A
B3: A90D (designed binder)
chain: B1 chain with A90D, N91A
B4: I45P (designed binder)
chain: B1 chain with I45P, N91A
B5: V55R (designed binder)
chain: B1 chain with V55R, N91A
B6: A98C (designed binder)
chain: B1 chain with N91A, A98C
B7: V57T (designed binder)
chain: B1 chain with V57T, N91A
B8: D56I (designed binder)
chain: B1 chain with D56I, N91A
B9: G54E (designed binder)
chain: B1 chain with G54E, N91A
B10: L39T (designed binder)
chain: B1 chain with L39T, N91A
B11: L24C (designed binder)
chain: B1 chain with L24C, N91A
B12: E73S (designed binder)
chain: B1 chain with E73S, N91A
B13: L74S (designed binder)
chain: B1 chain with L74S, N91A
B14: E58G (designed binder)
chain: B1 chain with E58G, N91A
B15: D65T (designed binder)
chain: B1 chain with D65T, N91A
B16: W70S (designed binder)
chain: B1 chain with W70S, N91A
B17: A19P (designed binder)
chain: B1 chain with A19P, N91A
B18: D59C (designed binder)
chain: B1 chain with D59C, N91A
B19: D56Y (designed binder)
chain: B1 chain with D56Y, N91A
B20: L12Q (designed binder)
chain: B1 chain with L12Q, N91A
B21: G54L (designed binder)
chain: B1 chain with G54L, N91A
B22: L3F (designed binder)
chain: B1 chain with L3F, N91A
B23: E16A (designed binder)
chain: B1 chain with E16A, N91A
B24: E5V (designed binder)
chain: B1 chain with E5V, N91A
B25: D40A (designed binder)
chain: B1 chain with D40A, N91A
B26: W68Q (designed binder)
chain: B1 chain with W68Q, N91A
B27: V57C (designed binder)
chain: B1 chain with V57C, N91A
B28: E67A (designed binder)
chain: B1 chain with E67A, N91A
B29: M1H (designed binder)
chain: B1 chain with M1H, N91A
B30: L3D (designed binder)
chain: B1 chain with L3D, N91A
B31: E67I (designed binder)
chain: B1 chain with E67I, N91A
B32: E10C (designed binder)
chain: B1 chain with E10C, N91A
B33: W70V (designed binder)
chain: B1 chain with W70V, N91A
B34: R14Y (designed binder)
chain: B1 chain with R14Y, N91A
B35: L41F (designed binder)
chain: B1 chain with L41F, N91A
B36: E29F (designed binder)
chain: B1 chain with E29F, N91A
B37: E73W (designed binder)
chain: B1 chain with E73W, N91A
B38: L12R (designed binder)
chain: B1 chain with L12R, N91A
B39: A98Q (designed binder)
chain: B1 chain with N91A, A98Q
B40: V85G (designed binder)
chain: B1 chain with V85G, N91A
B41: L64Y (designed binder)
chain: B1 chain with L64Y, N91A
B42: L7R (designed binder)
chain: B1 chain with L7R, N91A
B43: Q48M (designed binder)
chain: B1 chain with Q48M, N91A
B44: K72T (designed binder)
chain: B1 chain with K72T, N91A
B45: M1N (designed binder)
chain: B1 chain with M1N, N91A
B46: K62H (designed binder)
chain: B1 chain with K62H, N91A
B47: L26V (designed binder)
chain: B1 chain with L26V, N91A
B48: A15Q (designed binder)
chain: B1 chain with A15Q, N91A
B49: R8H (designed binder)
chain: B1 chain with R8H, N91A
B50: P32K (designed binder)
chain: B1 chain with P32K, N91A
B51: R61L (designed binder)
chain: B1 chain with R61L, N91A
B52: A102Q (designed binder)
chain: B1 chain with N91A, A102Q
B53: L24K (designed binder)
chain: B1 chain with L24K, N91A
B54: P79G (designed binder)
chain: B1 chain with P79G, N91A
B55: L93Q (designed binder)
chain: B1 chain with N91A, L93Q
B56: D59K (designed binder)
chain: B1 chain with D59K, N91A
B57: K72A (designed binder)
chain: B1 chain with K72A, N91A
B58: S47F (designed binder)
chain: B1 chain with S47F, N91A
B59: K35M (designed binder)
chain: B1 chain with K35M, N91A

Biological target: T1, TNFR1
Assay: yeast display SC50

Row | apparent Kd (screen) [nM] | Binder
1 | 0.593 | B1
2 | 0.405 | B2
3 | 0.446 | B3
4 | 0.229 | B4
5 | 2.48 | B5
6 | 0.49 | B6
7 | 1.05 | B7
8 | 2.73 | B8
9 | 26.9 | B9
10 | 2.05 | B10
11 | 0.593 | B11
12 | 0.539 | B12
13 | 2.25 | B13
14 | 0.49 | B14
15 | 0.593 | B15
16 | 12.5 | B16
17 | 9.41 | B17
18 | 13.8 | B18
19 | 2.25 | B19
20 | 0.79 | B20

Row | apparent Kd (screen) [nM] | Binder
21 | 16.7 | B21
22 | 2.25 | B22
23 | 0.539 | B23
24 | 0.593 | B24
25 | 0.539 | B25
26 | 5.31 | B26
27 | 0.539 | B27
28 | 12.5 | B28
29 | 0.539 | B29
30 | 0.718 | B30
31 | 6.43 | B31
32 | 16.7 | B32
33 | 20.2 | B33
34 | 0.49 | B34
35 | 0.79 | B35
36 | 0.653 | B36
37 | 0.653 | B37
38 | 0.49 | B38
39 | 0.653 | B39
40 | 0.718 | B40

Row | apparent Kd (screen) [nM] | Binder
41 | 0.49 | B41
42 | 8.56 | B42
43 | 1.16 | B43
44 | 0.718 | B44
45 | 0.49 | B45
46 | 0.718 | B46
47 | 0.79 | B47
48 | 0.718 | B48
49 | 0.869 | B49
50 | 0.653 | B50
51 | 0.539 | B51
52 | 0.539 | B52
53 | 11.4 | B53
54 | 0.956 | B54
55 | 0.539 | B55
56 | 0.869 | B56
57 | 0.869 | B57
58 | 0.49 | B58
59 | 0.446 | B59
